The series is described as follows: protease stability score; higher = more stable; yeast display proteolysis, trypsin and chymotrypsin.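 Note: log10 excess protease needed over predicted unfolded state with 0 meaning unfolded.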

Regarding “DEEENKHLISLFERNNWRDMAEMADKDVKAQYGDSTIHGREQVHEVLTQLQKRADHLEIKDYNVDGNKVVVDQVINVNGVTIRAKVLMEVHNGRIKQMHVQATDNEEKKKLDKVLS”, the protease stability score is -0.466.
“DEEENNKIARRAAKAFSTGDPDEFHKLVDPNARVRIGEKEVHGREDVHRMVQELRERADHIQVTSFTFQGNKITLDLSLDVNGHTVKLNVEITIHNGHVVDINIDPEQVKSLHG” returned a protease stability score of 0.647.
For “DEEENQELAEKFVRAIQEGDPDQITDLLDENAKATVGDRTYHGRSQIADYIHEMLKKADHFEVQSVDVQGNHIVIHVQMDINGKQVHMIIKMELSNGKVKHLEIEHK” the value was 1.75; for “DEEENTKVMERFLDAVKRGNEDDLHELADKDVRLTVGDKEYHGREEIMEYLHEWRKKVDHIDFDSYTVRGNTVEVHFQVHDNGQNEDVVVQVEVHNGRVKTVRYRHK”, 1.72; for “DEEEQDKVRKNIHHNNFDHLVQMADPNAHVKIGDKRIHGREELRKYQEKLKKQADHFSIDDMKVEGNKFKVKNNFKVNGQSFEHDYEATVQNGRLKSATVDARDEEDKKKLNEQMS”, 0.451.
“DEEEQEKQAHDFARVFNTGDEEKFKRLMPPDARFRYGDKEYHGMDDLLRMLLEMHKRADHLTLVDVDAHGNHLTIRIKVTVNGSDVTVDITITVDNGRLKSVVVDPRQWQKLRN” gave a protease stability score of 0.066.
For “DEEEQERAMEKLDHAIEKGDPDDAVELLDENADAVIGDKRYHGREAATTFMHELRKQIDHIHIRDMQIDNGRAHIEVDARHNGQERKINVVFVFHNGRATSMENRSE” the value was 1.02; for “DEEEQHKRAREYMQMFEDNDEKNLMHMADENARLVVGDKTYRGKEELSKQVREQKKRVDHNQVHSVRLHNGRVVIDVTLHHNGHREKRIIRVQLRNGRIKSIVYESG”, 0.037.
For “DEEEQHKTATKILSDFHTGNPDDMRENADEDVTAQVGDKTYTGREEFHKAVKTIVDRVDHLEIKSFDFHNGQLEANFVININGKNEKKKLVMRVENGRVKHMKIDDG” the value was -0.221.
Regarding “DEEEQHKVAKKLNEAFQQGDPDRLKQLVDKDARAEVGDTTYHGSQDIREAMQHIKDRVDKIEVKSFSVRNGKVTLSINMEVNGRKVILTVEARVDNGHVEYMRIKYTNEEDREVMDQ”, the protease stability score is 0.95.
As for “DEEEQKKRAKKQADAMRQGDTDELVKMLRDDVRVKVGDKEVHGREDLKKWAREIKKEVDHIQIRQVQVHNGRIDFHIVVNHNGKNKEVVLVVRVRNGQATDFKLTRK”, the protease stability score came to 0.051.
In the case of “DEEEQKNRAKNAADAFQTGDPDQMVEMVDKDVRVQVGDKRYHGREVARTVLDEMQQHIDHIHVKNYNVSGNTVEIRIKANINGRDVEINIHIEMHNGRVKEVKFNPKVADAAKR”, the protease stability score is 0.25.
In the case of “DEEEQKVFEKVQDAIRDGDEDTVKKLMDENAKVTIGDKDLHGSDNIARHVHKLHKDMRISIDIKHIDVTGDKIRVHARVEVDKNGKPKHYDVDFTARAKNGKVKTLNYREDS” it was 0.694; in that of “DEEEQMHQANQNLRDAFRTNDPDTWRTLVDENARVRIGDKHVSGREEVKELMEDIAREADHLELRVQSMTVRNGELHVHFTLRADVNGQKREIQVVVVLVVRNGRARISRVEQT”, 1.15.
For “DEEEQNKIAETAAKAVASGDEKRLVDLADKHVKVHYGDKDLRGKEAADTLAHDLKRQVDNIKVDTVHAHNGRANADVEVRVNGKKVRYQVQVVVTNGTIDRVQLDPDMVRDHES” the value was 0.101; for “DEEEQQDHAHTLKDALTYGNEQEFRHMADENARINYGEFDYHGREQFQDVIRRIMEQADHVRVDHVQVHGEHVDIRLKVKFNGQTQRWVIIVRFHNGRIKHLSADTQ”, 0.499; for “DEEEQQKNAETADRNVKTGNWEEIKKMVDKDARVKIGDTTLHGREDVSREFKRWREDADHVEMKRVSASNGRAVVEVEYTVNGRKKKFTMIMEMHNGRIKHFRNERS”, 0.251.
In the case of “DEEEQQKVADKIVEVLKSGNPDEMMKLADENVRAQVGDKTYHGREELKKWMKEVRDRVDRIRVETWEVHNGTVNIIVRMDVDGQTLTLTITANIHNGRIKQIVIEYRDDDELRKAQK” it was 0.729; in that of “DEEEQRKAAHQYRKGDPDEAHHMFDENATVEIGNFHVQGREQVREAFEHMKRRADHREVDDMKIQGDKVQVDFQIVVNGQRVKATLDAKVKNGRAQSVRVEFRDEEDRTRAERWFK”, 0.042; in that of “DEEEQRKTAEDIAQVLRTNNPDTMNKLADKNAKASVGDKTYHGRKELSKWIEEQRRRVDHVDIKRFSVDGNEIIIIVILNHNGQNTRVVMVARVKNGRIQSLWRKSK”, -0.176.
For “DEEERAKNFMKQLIDVAQRGDKENAKRLFDENARVEVGDKTYRGRRRVATFLMELSERADHMEMRIQSFDISGDKFDLVLKVERHHNGRQQSFQLKVVATVRNGNLVIVHVRMG”, the protease stability score was determined as 2.49.
Turning to “DEEERLRTILKLFEEALKHNDEDRLRKLADKDVRMRVGDKEYRGKEKFADFMRKLRTKADKVRIQIKQVNIQGNHNTMDITLVFNVNGNNNRFKVNFVFDIRGDSLKLKSATVK”, the protease stability score came to 1.32.
In the case of “DEEERRKAHELVKHNDWDKLMKNAPPDVTARIGDRTVHGMEEQVRIEHNMLRRVDENQLHSVDNSGNQLVVTLHVQINGRRFKFTVKIVIHNGQVTTVKVQARDEKEKRKLTELMG” it was 0.566.
For “DEEERRRLAKRVIDAMNTGDPDQVVEQIDPNARVEIGDKVYHGRDKAKKAAEERKRQADHVKLKSLEVHGNKVHARLIFNRNGENRTVLLRIKVSNGKALEIRFDHQ” the value was 0.552; for “DEEERSKLAERLVKAVQNNDEDSLLDNIDKNARVVVGEKTYHGRENARHAMQQFDEDVDHLQVRTFEVHGEHIRIQFEVNINGHTHTVVLDAEVKNGKLTDVKFDPDDMRKATS”, 0.14; for “DEEESDRLKELFRVMRTGDHKRAENMLDPNARFKVGDKKFEGRHEWQKDIKKTKEESHADIKIKDVHFDNGRVDVTLEMVVLHNGRPKKFRVKFVATIQGEKVKEAHITESQ”, -0.094.
In the case of “DEEEVEEMVDQALTAIRTGDEDTFAHQFDENARMEVGDTTLHGRDEIRKEMKKFRDRADHIRIQDYKVKGNKIVIVFVARFDGRHAQITIVWVFSNGRVKHASINPNQVQEFRK” it was 0.279.
“DEEEVERIAKKLWKIMETGDEDEARKMVPPDVQARVGDKHISGREQYAKWVREVVKRVDSFRIKSLDAKGDKVNIVFVVHHNGKVEQHHATLVFHNGKLVYRTVKTG” displayed a protease stability score of 0.433.
For the sequence “DEEEVERVAKTAMEAMKKGNEEELKKLLKEGVEYIMGDNKVHGPEEIQKMVQLVLRVGMRIEFKELRVEGDTATTNVDYQVGDKKVTVQAHAELKGGRIDRVQIDFSDEAKKHVKHG”, the protease stability score is 1.17.
Consider “DEEEVKDLDRRLQEAMKTNDPDQMQRLVDENVTASYGDKEVTGREEFKKNNRELLKRVDHVNIHDVTVSGEEMVLDASVKHDGREHRIRVRAVVRDGRIKSLKIHDG”, for which the protease stability score was found to be 0.494.
Sequence “DEEEVKKFKEFLDDEKKGNEERAKKLADPNVNVRVGNRQVDGSDNLQKEIRTQKEQARFDMKVDHVEAHNGRIHLEFKLTVEVDGRPKSDTATADAVVTNGHITSLTVQMSEDQVREMDK” yielded a protease stability score of -0.238.
In the case of “DEEEVKKQLEKLVKMLVKGNKDEIKKFLDPDVEYKVVDEDFQGQQVAEHAYKKIKKVGARMEVKEVRVEGDTAKATYEFTAGGTTVRAEIEAEVHGGRVKHWQVDLDDTAKELIKKG” it was 0.266; in that of “DEEEVKQAIDRWEQGDPDQLKELVDENAHMVIGDKRLHGRETFEKMIKNLMDQADHITIESVEVQGDKAVMDVVANFNGKTVRYEVEIRIQNGQIKYLQINVTNEHDEHRFDQWLG”, 1.16.
On to “DEEEVKRQLDQVAKALLHGDEKQAKDLADPNVSANYGDKKLHGRENFSKWVKKFRHQIDHLELKDIRVNGDRLVIEVQANVNGQDVDVVFNLKLHNGKVKHMSVEYRDEQAKRELKK”, for which the protease stability score was 0.49.
In turn, “DEEEVNKALERIRQVLEDGNPDENMKLMDKDVRVEIGDKTWHGRDEAHKAMRELNENVDHFQFDRLHHEGDRAKIDVHLEDNGKKDRVTFEFKIENGRIQHARVQTS” came in with a protease stability score of -0.335.
“DEEEVQKILKTMNELLKHNDFDSLARQADPNAEFHVGDKRVHGREQVQTMLQDLRERIDHVEIRSMTAQGDKFKLDFLENVNGRRTRVTAHADVHNGRIKSVEYRTS” came in with a protease stability score of -0.619.
In turn, “DEEEVRELAERFAENLERGDFHKVANQADPNARMQIGDTRYHGREELQRFLKELMERVDHLQIRSVKVRGNHVTIRMHVHYNGKSVDMHMTFHAKNGKIKHVEFNPKDFDKARR” gave a protease stability score of 0.813.
Take “DEEEVRKVLERLQKAVEKGNADEIAKLLKDDGEFVLIDERYKGQEDAKQVIKELQDKGFEFHTEEIQVKGGTAEVKTVWRVGDRELHLKVRYVVRGDKVDQVHAQWSKDAKEDLKKG”: the protease stability score was found to be 0.691.
For the sequence “DEEEVRRIAHEFLKAVERGDEKRVRQLADKDVRAVVGDKRIHGKKDLAKLVKTLRDRADQFKVRDLEVQGNHVEVDLVMIVNGQSVDMSINIVVHNGTIHHMEIRVTDEDRMREVNS”, the protease stability score is -0.053.
For “DEEEVSRILKKVLTAVRKNDPDTLMRLADKNARFHYGDRTYRGREQARRWMEDVRTHADHARINSFTVTGNKARADIRFDINGEERRVDMVIVVHNGKIHDLVVEDR” the value was 1.3; for “DEEEVTKVVKKLRENDRDSQRDLFDKDVRVKIGDKNVHGREQAVTFWDRFLNSVDRYHVDSVEIDGDQIKIDARAVVNGRKVRYVVVYTVRNGRIKEASVHFTNEDEEKEFEKNVG”, 1.28; for “DEEEWKELNKEISRIDQHGDERDLARLVDENAKIQIGDKTIRGREDLEKQFDRLRDRFDHIQVQHVENQGDKIRVEVVQRHNGRDETHVKTVKLENGRIKHMEMQHK”, -0.186.
Consider “DEEFAKTVVQMFRNWVHGDPSDMTRMLDENAHVVIGDTTLRGRDDVSRYVNELHDHMRFHVDRLSEENRPGRAVVKAQNNNVHNGEPTTNRAVVEVNVKNGKAQDIQYNSDK”, for which the protease stability score is -0.36.
The sequence “DEEFEQNAKEWLTAIKENDPDQVRDLVDEDVRFNVGNKKVHGRERWKHLVETENKELRVEYESIDVKVNGDKAEFNATVTVEVNGKPAHFHVNMKMQAHNGRIKHVSQNMSHEDQEKFRK” showed a protease stability score of -0.118.
For “DEEFLKRLVKILRTGDPDKLVNNFDKNARLEYGDKTVEGKNRIKKFMKDLHDRVDHFDIESVTLEPNHLDFTMKAQINGRDVKVRVRVEVHNGKIKHATYKYTNEDQERNMKHVKS” the value was 0.561.
In the case of “DEEFLRLIEEFWRAVKQNDEERLKHLLDENAKVKVGDKRLRGHEQVAKSIVDDQREMRIEMRIHKVEVDGNKVDVTYVVVFNVNGRPVSDSVRVIFRAKNGRIQMIEVRVDPDSAREQKS” it was 1.37.
Turning to “DEEFNKEVKKMFDNLEKGNEEEYLRMLDENAKAQYGDHDVRGREELKKELHRQRKEIRVKYQSVDIRMHNGELSVRFRAEVVVNGRPHTVERTQSAKVQNGRVQSMKLKIDEEQKERLEG”, the protease stability score is -0.251.

Values taken from the NTF2 design screens of Basanta et al. (2020).
